Data taken from US11789012B2, “Cell death biomarker” (UCL Business PLC, priority 2016, dated 2023).

Legend:
NCI-H2052 = test: rTRAIL response, viability assay, NCI-H2052; format: cell-based, Human; conditions: BAP1 Wild-type
Protocol: (§1) Manual “single dose” combination screening was undertaken using 96 well formats. Cells were plated on day 1 in previously optimized seeding densities in 180 μl if media. On day 2 20 μl of a 10× concentration of […] was added. Cells were then allowed to grow for 72 hrs or 6 days and fixed at the end of the assay. Drug wells were compared to DMSO treated control wells.
(§2) Single agent high throughput 5 point viability screening was undertaken in 384 well formats using robotic liquid handling with fixing with 4% paraformaldehyde and staining for viability with Syto60 nucleic acid dye (Invitrogen) (see below). Single agent dose response curves were derived for each library of 85-95 drugs according to the experiment used, and log IC50 or area under the curve (AUC) metrics were derived for each library compound in each cell line according to a previously derived formula [18].
(§3) Adherent cell lines were seeded 24 hours before drugging. Cells were trypsinised and counted before seeding at the optimal density for the size of well (96 or 384) and duration of assay. 72 hr after drug treatment cells were fixed with 4% paraformaldehyde for 30 minutes. […] Quantification of fluorescent signal was achieved using excitation/emission wavelength of 630/695 […].

[1] = system: control normal mesothelial cell line MET-5A; test: 6-day viability assay, normal mesothelial control line; format: cell-based; conditions: rTRAIL 40 ng/ml
Protocol: FIG. 2A is a volcano plot showing drug-genome interactions in MPM. […] The Y-axis denotes adjusted p-Value, X-axis denotes effect size. Size of circle indicates number of mutant lines in cohort tested. […] Met 5a is a mesothelial normal control line. FIG. 2C is a scatter plot showing AUC following 6 day viability assay in response to 40 ng/ml rTRAIL (normalised to DMSO treated control) in cell lines discretized by BAP1 mutation status. […] Two-tailed t-test, p=0.015.
as §1
Adherent cell lines were seeded 24 hours before drugging. Cells were trypsinised and counted before seeding at the optimal density for the size of well (96 or 384) and duration of assay. 72 hr after drug treatment cells were fixed with 4% paraformaldehyde for 30 minutes. Following two washes of dH2O 100 μl Syto60 nucleic acid stain (Invitrogen) was added at a final concentration of 1 μM and plates […] for 1 hr at room temperature. Quantification of fluorescent signal was achieved using excitation/emission wavelength of 630/695 […].

H513 = test: rTRAIL response, viability assay, H513; format: cell-based, Human
Protocol: as §1, §2, §3

H2591 = test: rTRAIL response, viability assay, H2591; format: cell-based, Human; conditions: BAP1 Wild-type
Protocol: as §1, §2, §3

H2803 = test: rTRAIL response, viability assay, H2803; format: cell-based, Human; conditions: BAP1 Wild-type
Protocol: as §1, §2, §3

NCI-H226 [2] = test: Annexin V/DAPI cell death assay, H226 parental and BAP1-transduced lines; format: cell-based, Human
Protocol: FIG. 5A is an immunoblot for BAP1 protein in BAP1 null mesothelioma lines following transfection with empty vector and BAP1 expression vector. […] FIG. 5C is a graph showing the effect of rTRAIL on cell viability of an untransduced H226 cell line, a BAP1 (transduced) cell line, and a H226 cell line with the NLS deleted.
Untransduced BAP1-negative H226 cells, BAP1-expressing and catalytically dead BAP1-expressing H226 cells were treated with 100 ng/ml of FASL, TRAIL and TNF-alpha for 24 hours and cell death was quantified by Annexin V/DAPI assay. *p<0.05 indicating significant difference between untransduced H226 cells H226 BAP1 expressing cells. NS no significant difference between untransduced H226 cells and BAP1 C91A transduced cells. #p<0.05 indicating significant difference between untransduced H226 cells and BAP1 C91A transduced cells.
Adherent mesothelioma cell lines were plated in a 96 well plate at approximately 10000 cells per well. Cells were plated and given 1 day to adhere at which time drug was added. After 48 hrs media, including floating cells, was collected from each well. The remaining adherent cells were washed with PBS and mobilised with 0.05% trypsin in EDTA. All cells were collected into tubes containing the previously removed media and pelleted by centrifugation (300 g, 5 minutes). Cells were then re-suspended in 1× Annexin V binding buffer with 10 μl/1 ml concentration of Annexin V-647 antibody (Invitrogen) and incubated for 15 minutes at room temperature. DAPI ([…]) was then added to each sample before flow cytometry analysis as below. Annexin V−/DAPI− cells were judged to be viable, AnnexinV+/DAPI− cells were considered to be undergoing apoptosis (early apoptotic phase), and Annexin V+/DAPI+ cells were considered late apoptotic or necrotic, and recorded as dead.

H2804 = test: rTRAIL response, viability assay, H2804; format: cell-based, Human; conditions: BAP1 Essential Splice, heterozygous
Protocol: as §1, §2, §3

H2722 = test: rTRAIL response, viability assay, H2722; format: cell-based, Human; conditions: BAP1 HomDel, homozygous
Protocol: as §1, §2, §3

H2818 = test: rTRAIL response, viability assay, H2818; format: cell-based, Human; conditions: BAP1 Wild-type
Protocol: as §1, §2, §3

H2869 = test: rTRAIL response, viability assay, H2869; format: cell-based, Human; conditions: BAP1 Wild-type
Protocol: as §1, §2, §3

[3] = system: mutated BAP1 xenografts (H226 C91A); test: Xenograft mouse model, H226 BAP1 and H226 C91A tumours; format: in vivo, mice
From the text: FIG. 9A is a protocol of an in vivo experiment. FIG. 9B is a box plot showing the weight of tumours extracted from mice injected with mutant or wild-type BAP1-expressing cells after treatment with rTRAIL. […] FIG. 9C is a graph showing that TRAIL treatment reduces the tumour burden (measured by bioluminescence) of mutated BAP1 xenografts when compared to TRAIL treated wild-type BAP1 xenografts or untreated BAP1 mutated and BAP1 wild-type xenografts.
Groups of 8 week old NOD.CB17-Prkdcscid/NcrCrl (NOD SCID) mice (Charles River) were injected on each flank with 1 million cells of luciferase transduced mesothelioma cell lines (H226 BAP and H226 C91A) in a 1:1 mixture of matrigel and media. When tumours were established, as assessed by bioluminescent imaging (IVIS), at 14 days following injection of tumour cells, treatment was began with either vehicle or isoleucine zipper TRAIL (izTRAIL). Either vehicle or izTRAIL were given intraperitoneally once daily at a dose of 600 mcg for the duration of the experiment. Tumour size was assessed at days 0, 13, 19, 26 and 41 using bioluminescent imaging (IVIS). Mice were culled at 42 days and tumours removed and weighed. Six mice per group were treated. Researchers were not blinded in these experiments.

NCI-H226 [4] = test: rTRAIL response, viability assay, NCI-H226; format: cell-based, Human; conditions: BAP1 HomDel, homozygous
Protocol: as §1, §2, §3

HCC1187 = test: rTRAIL viability, breast cancer cell line HCC1187; format: cell-based; conditions: nonsense mutation in BAP1
From the text: FIG. 8A is a graph showing the effect of rTRAIL on the viability of various cancer cell lines. Bladder (RT4) and Breast (HCC1187) cancer cell lines with nonsense mutations in BAP1 show sensitivity to rTRAIL while renal cell cancer cell lines (769P & RCC10RGB) with missense mutation and wild-type renal (BB65RCC) and bladder cancer (SW1710) cell lines are resistant to TRAIL.

B1: rTRAIL: recombinant protein that activates the TRAIL pathway by binding to TRAIL-R1 (DR 4) and TRAIL-R2 (DR 5) (protein, UniProt P50591 1-281, looked up)
Tumor necrosis factor ligand …: MAMMEVQGGPSLGQTCVLIVIFTVLLQSLCVAVTYVYFTNELKQMQDKYSKSGIACFLKEDDSYWDPNDEESMNSPCWQVKWQLRQLVRKMILRTSEETISTVQEKQQNISPLVRERGPQRVAAHITGTRGRSNTLSSPNSKNEKALGRKINSWESSRSGHSFLSNLHLRNGELVIHEKGFYYIYSQTYFRFQEEIKENTKNDKQMVQYIYKYTSYPDPILLMKSARNSCWSKDAEYGLYSIYQGGIFELKENDRIFVSVTNEHLIDMDHEASFFGAFLVG
rTRAIL response (NCI-H2052): Resistant
effect on cell viability [1]: no significant effect on cell viability
rTRAIL response (H513; BAP1 Wild-type): Resistant
TRAIL sensitivity (H513; BAP1 wild-type and ASXL3 mutant (truncating mutation)): sensitive
rTRAIL response (H2591): Resistant
rTRAIL response (H2803): Resistant
sensitivity of H226 cells to cell death-inducing ligand, dependence on BAP1 catalytic domain (NCI-H226 [2]; 100 ng/ml, 24 hours, untransduced, BAP1-expressing and catalytically dead BAP1-expressing H226): regulates the sensitivity
cell death relative to BAP1 null line (NCI-H226 [2]; BAP1 expressing H226 cell line, dose range of TRAIL): significantly reduced
cell death (NCI-H226 [2]; BAP1 null NCI-H226, dose range of TRAIL): increased cell death
rTRAIL response (H2804): Sensitive
rTRAIL response (H2722): Resistant
rTRAIL response (H2818): Resistant
rTRAIL response (H2869): Resistant
tumour weight at end of experiment ([3]; mutated BAP1 tumours vs wild-type BAP1 tumours with TRAIL or vehicle-treated tumours, intraperitoneally once daily 600 mcg): significantly less
tumour burden (bioluminescence) ([3]; mutated BAP1 xenografts vs wild-type with TRAIL or vehicle-treated xenografts, tracked over 4 weeks): significantly less
rTRAIL response (NCI-H226 [4]): Sensitive**
response to rTRAIL (viability) (HCC1187): sensitivity
